Assay [1] addresses T1, SARS-CoV-2 two-proline stabilized S trimer (S-2P) (SARS-CoV-2 Wuhan-Hu-1 (GenBank …, UniProt P0DTC2, stabilised)).
T1 construct: also called SARS-CoV-2 S-2P
In words: SPR. The note with it: both partners purified.

Assay [2] concerns the target T1, SARS-CoV-2 two-proline stabilized S …. In words: SPR. To be noted: both partners purified. This is another data set of the same source.

As usually defined, the Kd is the free concentration of one partner at which half of the binding sites on the other are occupied at equilibrium, for simple one-to-one binding. A higher Kd goes with a looser complex. As usually defined, the koff is the first-order rate constant of dissociation. Low values mean a long-lived complex, high ones a short-lived complex. Broadly, the kon is the rate constant with which the complex forms. High values mean faster complex formation, low ones slower complex formation.

B1: 7D6 monoclonal antibody (antibody, V domains shown)
VH: EVQLQQSGAELVRPGASVKLSCTASGFNIKDTYIHWVKQRPEQGLEWIGRIDPGDGDTEYDPSFQGKATITADTSSNTAYLELSSLTSEDTAVYYCTRFYDYVDYGMDYWGQGTSVTVSS
VL: DIQMTQSPASLSASVGETVTITCRASGNIHNYLAWYQQKQGKSPQLLVYNAKTLADGVPSRFSGSGSGTQYSLKINSLQPEDFGSYYCQHFWSTPPWTFGGGTKLEVK
notes: also called mAb 7D6; source: mouse hybridoma, ascites, purified (protein A agarose); copies: 2 + 2
On to B1, for which the Kd in assay [1] was 5.8 nM. In assay [2], this molecule came in with a Kd of 5.89 nM, an off-rate constant (koff) of 8.81e-05 s⁻¹ and a kon of 15200 M⁻¹ s⁻¹.

B2: 6D6 monoclonal antibody (antibody, V domains shown)
VH: EVQLQQSGAELVKPGASVKLSCTTSGFNIIDTYMHWVKQRPEEGLEWIGGIDPVNGNSEYDPKFQDKATITADTSSNTAYLHLSRLTSEDTAVYYCASAHYYGSSSSFPYWGQGTLVTVSA
VL: DIVMTQSQKFMSTSVGDRVSVTCKASQNVGTHVAWYQQKPGQSPKALIYSASYRYSGVPDRFTGSGVGTDFTLTITNVQSEDLAEYFCQQYNSYFTFGSGTKLEIK
notes: also called mAb 6D6; source: mouse hybridoma, ascites, purified (protein A agarose); copies: 2 + 2
In assay [2], B2 had a Kd of 0.03 nM, a koff of 4.2e-06 s⁻¹ and a kon of 123000 M⁻¹ s⁻¹.

The values are drawn from PMC8476643 (Nature Communications, 2021).
